According to the supplement of paper PMC7877785:
± gives the uncertainty stated by the source.

Assay: self-splicing fitness, log relative to wild type (ln ratio); higher = more splicing; Tetrahymena group I intron in knt gene, E. coli kanamycin selection, DiMSum; sequences stand for … in CUCUCU…GGAGGGAAAAGUUAUCAGGCAUGCACCUGGUAGCUAGUCUUUAAACCAAUAGAUUGCAUCGGUUUAAAAGGCAAGACCGUCAAAUUGCGGGAAAGGGGUCAACAGCCGUUCAGUACCAAGUCUCAGGGGAAACUUUGAGAUGGCCUUGCAAAGGGUAUGGUAAUAAGCUGACGGACAUGGUCCUAACCACGCAGCCAAGUCCUAAGUCAACAGAUCUUCUGUUGAUAUGGAUGCAGUUCACAGACUAAAUGUCGGUCGGGGAAGAUGUAUUCUUCUCAUAAGAUAUAGUCGGACCUCUCCUUAAUGGGAGCUAGCGGAUGAAGUGAUGCAACACUGGAGCCGCUGGGAACUAAUUUGUAUGCGAAAGUAUAUUGAUUAGUUUUGGAGUACUCGUGGUCG
In short: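 The eight P1ex-region nucleotides of an intron in the knt kanamycin-resistance gene on pET-22b(+) were all randomised and the library put into E. coli BL21(DE3). Six replicate transformations were grown overnight at 37°C or 30°C on LB agar with or without 25 μg/mL kanamycin, together with 100 μg/mL carbenicillin, 50 μM IPTG and 0.2% rhamnose. Colonies were pooled and amplicon-sequenced on an Illumina HiSeq 2500. Fitness from DiMSum is the error-weighted combination of wild-type-normalised replicate fold changes, kanamycin over none.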

Sequence | self-splicing fitness (ln) (30 °C) | self-splicing fitness (ln) (37 °C)
AUAAAGCAAUAUUACGGACU | -0.0332 ± 0.073 | 0.654 ± 0.092
UAAUAGCAAUAUUACGCUCG | 0.447 ± 0.16 | 0.265 ± 0.18
UCGCAGCAAUAUUACGUAAA | -1.69 ± 0.094 | -1.12 ± 0.12
CCAUAGCAAUAUUACGAUGC | -3.11 ± 0.17 | -1.88 ± 0.17
AGAGAGCAAUAUUACGGCUA | -1.86 ± 0.46 | -2.19 ± 0.39
UCCCAGCAAUAUUACGGGGC | -2.72 ± 0.17 | -2.84 ± 0.22
GAGGAGCAAUAUUACGUGAU |  | -2.02 ± 0.27
AUCCAGCAAUAUUACGGAAA | -1.07 ± 0.092 | -1.02 ± 0.084
UAAUAGCAAUAUUACGUGAC | -3.71 ± 0.22 | -2.78 ± 0.22
GUAAAGCAAUAUUACGGGAC | -1.62 ± 0.12 | -1.18 ± 0.11
CGGUAGCAAUAUUACGCCUU | -0.779 ± 0.11 | -0.542 ± 0.14
AUCCAGCAAUAUUACGGUUU | -1.04 ± 0.05 | -0.324 ± 0.068
AUUAAGCAAUAUUACGAAUG | -2.82 ± 0.2 | -0.206 ± 0.2
CAGCAGCAAUAUUACGUGUG | -2.51 ± 0.077 | -1.32 ± 0.088
CUACAGCAAUAUUACGCUUA | -3.44 ± 0.19 | -2.65 ± 0.19
GUGUAGCAAUAUUACGACAA | -0.665 ± 0.14 | -0.365 ± 0.21
GGGAAGCAAUAUUACGUUUA | -2.23 ± 0.22 | -1.51 ± 0.16
CGGGAGCAAUAUUACGGAAG | -2.64 ± 0.18 | -1.3 ± 0.17
GCGUAGCAAUAUUACGUAUA | -2.15 ± 0.26 | -1.52 ± 0.21
CUCCAGCAAUAUUACGUUGA | -2.56 ± 0.18 | -2.87 ± 0.19
AGCUAGCAAUAUUACGAUCG | -1.81 ± 0.16 | -0.102 ± 0.18
CAGCAGCAAUAUUACGUCAG | -0.347 ± 0.05 | -0.265 ± 0.06
CAUAAGCAAUAUUACGCAAU | -3.2 ± 0.25 | -2.59 ± 0.36
UAAUAGCAAUAUUACGCCUU | -3.48 ± 0.21 | -1 ± 0.14
UCUAAGCAAUAUUACGUGCU | -4.04 ± 0.34 | -2.37 ± 0.2

Sequence | self-splicing fitness (ln) (30 °C) | self-splicing fitness (ln) (37 °C)
GCAAAGCAAUAUUACGCAUG | -3.61 ± 0.22 | -2.97 ± 0.27
GGCGAGCAAUAUUACGCUGC | -2.58 ± 0.39 | -0.462 ± 0.37
UCCGAGCAAUAUUACGGGCU | -4.07 ± 0.24 | -2.97 ± 0.2
UGUAAGCAAUAUUACGUCUA | -0.00173 ± 0.09 | 0.151 ± 0.11
GUGAAGCAAUAUUACGACAC | -1.1 ± 0.12 | 0.386 ± 0.18
UCUGAGCAAUAUUACGCGAG | -3.09 ± 0.2 | -2.28 ± 0.24
GCGAAGCAAUAUUACGAAAC | -1.86 ± 0.35 | -0.819 ± 0.44
CAUCAGCAAUAUUACGAAUG | -3.18 ± 0.16 | -2.05 ± 0.14
UGCAAGCAAUAUUACGCCAA | -1.67 ± 0.34 | -0.657 ± 0.19
CCUCAGCAAUAUUACGCGGA | -2.68 ± 0.22 | -3.28 ± 0.26
CUCCAGCAAUAUUACGUAAG | -0.512 ± 0.053 | 0.0902 ± 0.076
CGUCAGCAAUAUUACGUACG | -3.6 ± 0.43 | -2.97 ± 0.37
CAAUAGCAAUAUUACGGCCA | -3.08 ± 0.3 | -1.49 ± 0.32
CCGCAGCAAUAUUACGAAGA | -2.83 ± 0.26 | -2.57 ± 0.24
CCUAAGCAAUAUUACGGAGC | -2.66 ± 0.35 | 
UCGCAGCAAUAUUACGGUGA | -4.44 ± 0.46 | -2.45 ± 0.15
AAAGAGCAAUAUUACGUAAC | -3.77 ± 0.31 | -2.88 ± 0.43
AGAUAGCAAUAUUACGCGUG | -1.44 ± 0.1 | -1.01 ± 0.12
UGUUAGCAAUAUUACGUCUA | -0.124 ± 0.072 | -0.175 ± 0.071
GGCCAGCAAUAUUACGUUAU | -2.4 ± 0.13 | -0.702 ± 0.11
GGGGAGCAAUAUUACGAACU | -2.75 ± 0.31 | -1.76 ± 0.27
UAGCAGCAAUAUUACGCGAU | -2.94 ± 0.2 | -3.07 ± 0.35
GCCGAGCAAUAUUACGCUUA | -1.21 ± 0.072 | -0.233 ± 0.089
UUGUAGCAAUAUUACGGAUU |  | -2 ± 0.34
CUCAAGCAAUAUUACGAUAG | -2 ± 0.1 | -0.283 ± 0.1

Sequence | self-splicing fitness (ln) (30 °C) | self-splicing fitness (ln) (37 °C)
UGGCAGCAAUAUUACGCGCG | -0.287 ± 0.064 | 0.0127 ± 0.089
GCAGAGCAAUAUUACGGUAG | -1.82 ± 0.27 | -0.285 ± 0.44
AUUUAGCAAUAUUACGACGA | -0.672 ± 0.15 | 0.131 ± 0.18
GUCCAGCAAUAUUACGCGAU | -3.24 ± 0.19 | -2.4 ± 0.19
GGCAAGCAAUAUUACGUACA | -0.414 ± 0.071 | 0.296 ± 0.094
ACCUAGCAAUAUUACGGCUU | -0.695 ± 0.076 | 0.252 ± 0.098
GCGGAGCAAUAUUACGUAUC | -1.83 ± 0.33 | 
AGAAAGCAAUAUUACGUCUG | -0.808 ± 0.043 | -0.1 ± 0.063
CCUCAGCAAUAUUACGUCAU | -3.03 ± 0.13 | -1.77 ± 0.18
GCUGAGCAAUAUUACGAGCG | -0.822 ± 0.23 | -0.795 ± 0.21
AUAUAGCAAUAUUACGAUAA | -1.38 ± 0.31 | -0.229 ± 0.39
UUUGAGCAAUAUUACGUCAU | -3.88 ± 0.34 | -1.64 ± 0.21
ACUAAGCAAUAUUACGAGGA | -2.34 ± 0.23 | -2.13 ± 0.2
CUGUAGCAAUAUUACGACAG | -4.61 ± 0.3 | -1.97 ± 0.21
UUGUAGCAAUAUUACGGCCA | -0.782 ± 0.2 | 0.581 ± 0.28
UUCCAGCAAUAUUACGUCUU | -2.64 ± 0.15 | -2.27 ± 0.2
CAGUAGCAAUAUUACGCACA | -1.88 ± 0.14 | -0.579 ± 0.18
GGGAAGCAAUAUUACGGAAU |  | -1.67 ± 0.42
ACCCAGCAAUAUUACGGCGC | -0.619 ± 0.062 | 0.132 ± 0.096
AUCAAGCAAUAUUACGGUCU | -1.54 ± 0.11 | -0.196 ± 0.095
UCCCAGCAAUAUUACGUGAA | 0.116 ± 0.045 | 0.582 ± 0.067
GCCUAGCAAUAUUACGAGAU | -1.88 ± 0.12 | -0.45 ± 0.11
UUAUAGCAAUAUUACGCAAU | -2.86 ± 0.3 | -0.556 ± 0.23
GCAAAGCAAUAUUACGUGCA | -1.62 ± 0.099 | -0.826 ± 0.1
UAUCAGCAAUAUUACGAGCA | -0.827 ± 0.084 | -0.124 ± 0.11

Sequence | self-splicing fitness (ln) (30 °C) | self-splicing fitness (ln) (37 °C)
ACCGAGCAAUAUUACGGGAG | -3.54 ± 0.2 | -2.69 ± 0.3
CACAAGCAAUAUUACGGCCU | -4.49 ± 0.24 | -2.74 ± 0.24
CAGAAGCAAUAUUACGACAU | -3.128 ± 0.02 | -1.87 ± 0.034
GCCGAGCAAUAUUACGAUGC | -0.994 ± 0.088 | -0.352 ± 0.096
UAUUAGCAAUAUUACGUAAU | -3.24 ± 0.26 | -1.93 ± 0.24
AGAUAGCAAUAUUACGCUGA | -1.79 ± 0.14 | -0.681 ± 0.17
GGCUAGCAAUAUUACGCUGU | -3.44 ± 0.29 | -1.19 ± 0.21
CCGGAGCAAUAUUACGUGUG | -1.68 ± 0.039 | -1.05 ± 0.061
UGCUAGCAAUAUUACGGGCA | -3.8 ± 0.25 | -2.02 ± 0.19
GAGCAGCAAUAUUACGGGAA | -3.18 ± 0.26 | -2.05 ± 0.22
CCAGAGCAAUAUUACGCCUC | -3.12 ± 0.31 | 0.134 ± 0.26
GCGGAGCAAUAUUACGACGC |  | -2.45 ± 0.21
GCCUAGCAAUAUUACGUCCG | -3 ± 0.42 | -2.03 ± 0.26
CGCCAGCAAUAUUACGUAAU | -2.67 ± 0.12 | -1.71 ± 0.15
AUAAAGCAAUAUUACGCUCA | 0.119 ± 0.11 | -0.112 ± 0.12
CAUGAGCAAUAUUACGCCGA | -2.14 ± 0.47 | -2.48 ± 0.31
GGUGAGCAAUAUUACGUCGC | -3.57 ± 0.49 | 
GCGGAGCAAUAUUACGCAUU | -2.8 ± 0.39 | 
CUUCAGCAAUAUUACGAGCU | -3.82 ± 0.29 | -3.41 ± 0.33
CUCAAGCAAUAUUACGUGGA | -3.76 ± 0.18 | -1.19 ± 0.084
AACCAGCAAUAUUACGGUGA | -1.19 ± 0.065 | -0.538 ± 0.078
UUACAGCAAUAUUACGAAGG | -3.54 ± 0.31 | -1.3 ± 0.23
